Reference: the nanobody polyreactivity screen of Harvey et al. (2022)

test: yeast display, Sf9 membrane polyspecificity reagent, FACS + sequencing; frameworks hold sequencing errors
Method in brief: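 Galactose-induced (36–48 hours) yeast carrying a synthetic nanobody display library were exposed to 10% biotinylated, detergent-solubilized Sf9 membrane reagent at 4 °C for 1 hour. FACS followed streptavidin microbead enrichment, using low and high (top ~1%) gates for expression (anti-HA) and reagent binding (streptavidin). Colony PCR, MiSeq 2 × 250 sequencing and CDR-length filtering followed. Labels for polyreactivity reflect the gate of origin.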

Sequence | polyreactivity (PSR sort gate)
QVQLVESGGGLVQAGGSLRLSCAASGSTFRIYAMGWYRQAPGKERELVAAIRRRGASTYYADSVKGRFTISRDNAKNTVYLQMISLKPEDTAVYYCAASYFWDRVPGRGIHDYWGQGTQVTVSS | high polyreactivity
QVQLVESGGGLVQAGGSLRLSCAASGSTFRIYAMGWYRQAPGKERELVATITSGSSTYADSVKGRFTISRDNAKNTVYLQMNSLKPEDTAVYYCAARRKGGHISYGYDYWGQGTQVTVSS | high polyreactivity
QVQLVESGGGLVQAGGSLRLSCAASGSTFRKNAMGWYRQAPGKERELVASISISGGRTNYADSVKGRFTISRDNAKNTVYLQMNSLKPEDTAVYYCAAGYPWYQLPRPLEYYYWGQGTQVTVSS | high polyreactivity
QVQLVESGGGLVQAGGSLRLSCAASGSTFRKYAMGWYRQAPGKERELVAAISKSGGSTYYADSVKGRFTISRDNAKNTVYLQMNSLKPEDTAVYYCNARKRTKLSYPKFDYWGQGTQVTVSS | high polyreactivity
QVQLVESGGGLVQAGGSLRLSCAASGSTFRLYAMGWYRPAPGKERELVAGISRTGTSTYYADSVKGRFTISRDNAKNTVYLQMNSLKPEDTAVYYCAAVRYWSDYDYWGQGTQVTVSS | high polyreactivity
QVQLVESGGGLVQAGGSLRLSCAASGSTFRLYPMGWYRQAPGKERELVAAISRSGGSTYYADSVKGRFTISRDNAKNTVYLQMNRLKPEDTAVYYCAKRRPLYAHPDDYWGQGTQVTVSS | low polyreactivity
QVQLVESGGGLVQAGGSLRLSCAASGSTFRPNAMGWYRQAPGKERELVAAINRGGRTNYADSVKGRFTISRDNAKNTVYLQMISLKPEDTAVYYCAAYIAGRYGARGYDYWGQGTQVTVSS | high polyreactivity
QVQLVESGGGLVQAGGSLRLSCAASGSTFRQNAMGWYRQAPGKERELVAAISSIGDSTNYADSVKGRFTISRDNAKNTVYLQMNSLKPEDTAVYYCAARTVQQRRRLYYWGQGTQVTVSS | high polyreactivity
QVQLVESGGGLVQAGGSLRLSCAASGSTFRQYAMGWYRQEPGKERELVAAITWRGDNTYYADSVKGRFTISRDNAKNTVYLQMNSLKPEDTAVYYCAAEYTVYVTDWYDYYYWGQGTQVTVSS | low polyreactivity
QVQLVESGGGLVQAGGSLRLSCAASGSTFRRKVMGGYRQAPGKERELVASIRSGGTTNYADSVKGRFTISRDNAKNTVYLQMNSLKPEDTAVYYCNKRLFWYRHYYYLGQGTQVTVSS | high polyreactivity
QVQLVESGGGLVQAGGSLRLSCAASGSTFRRNAMGWYRQAPGKERELVAAISRRGGSTYYADSVKGRFTISRDNAKNTVYLQMNSLKPEDTAVYYCAADNTQVRPKYDYWGQGTQVTVSS | high polyreactivity
QVQLVESGGGLVQAGGSLRLSCAASGSTFRRNAMGWYRQAPGKERELVAAISTSGGTTYYADSVKGRFTISRDNAKNTVYLQMNSLKPEDTAVYYCNKGGISGRDYWGLGTQVTVSS | high polyreactivity
QVQLVESGGGLVQAGGSLRLSCAASGSTFRRNAMGWYRQAPGKERELVARISYRGGSTYYADSVKGRFTISRDNAKNTVYLQMNSLKPEDTAVYYCAARVYGVPEYDYWGQGTQVTVSS | low polyreactivity
QVQLVESGGGLVQAGGSLRLSCAASGSTFRRNDMGWYRQAPGKERELVAAITSGGITNYADSVKGRFTISRDNAKNTVYLQMNSLKPEDTAVYYCNKDSDLHHYHTEFDYWGQGTQVTVSS | low polyreactivity
QVQLVESGGGLVQAGGSLRLSCAASGSTFRRNTMGWYREAPGKEREFVAALSRRGGSTYYADSVKGRFTISRDNAKNTVYFQMNRLKPEDTGVYYCAAPGLSRLYNVYYWPYDYWGQGTQVTVSS | high polyreactivity
QVQLVESGGGLVQAGGSLRLSCAASGSTFRRYAMGGYRQAPGKERELVAAISRSGGTTYYADSVKGRFTISRDNAKNTVYLQMNSLKPEDTAVYYCNARYPVVRYDYWGQGTQVTVSS | high polyreactivity
QVQLVESGGGLVQAGGSLRLSCAASGSTFRRYAMGWYRQAPGKERELVAAISSGGSTYYADSVKGRFTISRDNAKNTVYLQMNSLKPEDTALYYCAKRPLKRQIPAVGYDYWGQGTQVTVSS | high polyreactivity
